To fix the notation:
B1: Fibulin-1: CSF protein bound to fibrils (protein, UniProt P23142 30-703, looked up)
Fibulin-1: DVLLEACCADGHRMATHQKDCSLPYATESKECRMVQEQCCHSQLEELHCATGISLANEQDRCATPHGDNASLEATFVKRCCHCCLLGRAAQAQGQSCEYSLMVGYQCGQVFQACCVKSQETGDLDVGGLQETDKIIEVEEEQEDPYLNDRCRGGGPCKQQCRDTGDEVVCSCFVGYQLLSDGVSCEDVNECITGSHSCRLGESCINTVGSFRCQRDSSCGTGYELTEDNSCKDIDECESGIHNCLPDFICQNTLGSFRCRPKLQCKSGFIQDALGNCIDINECLSISAPCPIGHTCINTEGSYTCQKNVPNCGRGYHLNEEGTRCVDVDECAPPAEPCGKGHRCVNSPGSFRCECKTGYYFDGISRMCVDVNECQRYPGRLCGHKCENTLGSYLCSCSVGFRLSVDGRSCEDINECSSSPCSQECANVYGSYQCYCRRGYQLSDVDGVTCEDIDECALPTGGHICSYRCINIPGSFQCSCPSSGYRLAPNGRNCQDIDECVTGIHNCSINETCFNIQGGFRCLAFECPENYRRSAATLQQEKTDTVRCIKSCRPNDVTCVFDPVHTISHTVISLPTFREFTRPEEIIFLRAITPPHPASQANIIFDITEGNLRDSFDIIKRYMDGMTVGVVRQVRPIVGPFHAVLKLEMNYVVGGVVSHRNVVNVHIFVSEYWF
B2: Cystatin-C: CSF protein bound to fibrils (protein, UniProt P01034 27-146, looked up)
Cystatin-C: SSPGKPPRLVGGPMDASVEEEGVRRALDFAVGEYNKASNDMYHSRALQVVRARKQIVAGVNYFLDVELGRTTCTKTQPNLDNCPFHDQPHLKRKAFCSFQIYAVPWQGTMTLSKSTCQDA
B3: α2-HS-glycoprotein: CSF protein bound to fibrils (protein, UniProt P02765 19-300; P02765 341-367, looked up)
Alpha-2-HS-glycoprotein chain … 1: APHGPGLIYRQPNCDDPETEEAALVAIDYINQNLPWGYKHTLNQIDEVKVWPQQPSGELFEIEIDTLETTCHVLDPTPVARCSVRQLKEHAVEGDCDFQLLKLDGKFSVVYAKCDSSPDSAEDVRKVCQDCPLLAPLNDTRVVHAAKAALAAFNAQNNGSNFQLEEISRAQLVPLPPSTYVEFTVSGTDCVAKEATEAAKCNLLAEKQYGFCKATLSEKLGGAEVAVTCMVFQTQPVSSQPQPEGANEAVPTPVVDPDAPPSPPLGAPGLPPAGSPPDSHVL
Alpha-2-HS-glycoprotein chain … 2: TVVQPSVGAAAGPVVPPCPGRIRHFKV
B4: Amyloid-like protein 1: CSF protein bound to fibrils (protein, UniProt P51693 39-650, looked up)
Amyloid beta precursor like …: SLAGGSPGAAEAPGSAQVAGLCGRLTLHRDLRTGRWEPDPQRSRRCLRDPQRVLEYCRQMYPELQIARVEQATQAIPMERWCGGSRSGSCAHPHHQVVPFRCLPGEFVSEALLVPEGCRFLHQERMDQCESSTRRHQEAQEACSSQGLILHGSGMLLPCGSDRFRGVEYVCCPPPGTPDPSGTAVGDPSTRSWPPGSRVEGAEDEEEEESFPQPVDDYFVEPPQAEEEEETVPPPSSHTLAVVGKVTPTPRPTDGVDIYFGMPGEISEHEGFLRAKMDLEERRMRQINEVMREWAMADNQSKNLPKADRQALNEHFQSILQTLEEQVSGERQRLVETHATRVIALINDQRRAALEGFLAALQADPPQAERVLLALRRYLRAEQKEQRHTLRHYQHVAAVDPEKAQQMRFQVHTHLQVIEERVNQSLGLLDQNPHLAQELRPQIQELLHSEHLGPSELEAPAPGGSSEDKGGLQPPDSKDDTPMTLPKGSTEQDAASPEKEKMNPLEQYERKVNASVPRGFPFHSSEIQRDELAPAGTGVSREAVSGLLIMGAGGGSLIVLSMLLLRRKKPYGAISHGVVEVDPMLTLEEQQLRELQRHGYENPTYRFLEERP
B5: Calsyntenin-1: CSF protein bound to fibrils (protein, UniProt O94985 29-981, looked up)
Calsyntenin-1: ARVNKHKPWLEPTYHGIVTENDNTVLLDPPLIALDKDAPLRFAESFEVTVTKEGEICGFKIHGQNVPFDAVVVDKSTGEGVIRSKEKLDCELQKDYSFTIQAYDCGKGPDGTNVKKSHKATVHIQVNDVNEYAPVFKEKSYKATVIEGKQYDSILRVEAVDADCSPQFSQICSYEIITPDVPFTVDKDGYIKNTEKLNYGKEHQYKLTVTAYDCGKKRATEDVLVKISIKPTCTPGWQGWNNRIEYEPGTGALAVFPNIHLETCDEPVASVQATVELETSHIGKGCDRDTYSEKSLHRLCGAAAGTAELLPSPSGSLNWTMGLPTDNGHDSDQVFEFNGTQAVRIPDGVVSVSPKEPFTISVWMRHGPFGRKKETILCSSDKTDMNRHHYSLYVHGCRLIFLFRQDPSEEKKYRPAEFHWKLNQVCDEEWHHYVLNVEFPSVTLYVDGTSHEPFSVTEDYPLHPSKIETQLVVGACWQEFSGVENDNETEPVTVASAGGDLHMTQFFRGNLAGLTLRSGKLADKKVIDCLYTCKEGLDLQVLEDSGRGVQIQAHPSQLVLTLEGEDLGELDKAMQHISYLNSRQFPTPGIRRLKITSTIKCFNEATCISVPPVDGYVMVLQPEEPKISLSGVHHFARAASEFESSEGVFLFPELRIISTITREVEPEGDGAEDPTVQESLVSEEIVHDLDTCEVTVEGEELNHEQESLEVDMARLQQKGIEVSSSELGMTFTGVDTMASYEEVLHLLRYRNWHARSLLDRKFKLICSELNGRYISNEFKVEVNVIHTANPMEHANHMAAQPQFVHPEHRSFVDLSGHNLANPHPFAVVPSTATVVIVVCVSFLVFMIILGVFRIRAAHRRTMRDQDTGKENEMDWDDSALTITVNPMETYEDQHSSEEEEEEEEEEESEDGEEEDDITSAESESSEEEEGEQGDPQNATRQQQLEWDDSTLSY

T4 sequence (P01009 383-418 limits assumed): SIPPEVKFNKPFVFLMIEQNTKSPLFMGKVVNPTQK

One assay has as its system T1, Ab1 fibrils.
T1 construct: Synthetic amyloid β peptide 1–40 was purchased from Caslo Aps (Lyngby, Denmark); purchased Caslo Aps (Lyngby, Denmark); host or cells: synthetic peptide
Briefly: Fibril incubation with CSF, quantitative MS/MS of bound proteins. The format is binding, human. The note with it: 4:1 w/w CSF protein:fibril. As for the experimental part: (§1) Plasma and CSF solutions were centrifuged (40,000 g, 20 min) to remove any aggregates. The protein concentration was determined using 280 nm absorbance assuming 1 Abs = 1 mg/mL. […] Control samples (without fibril material) were prepared similarly. All samples were incubated at room temperature for one hour under gentle agitation. Fibrils and fibril-bound proteins were pelleted by centrifugation at 17,000 g for 30 minutes. The supernatant (175 μL) was removed and the aggregate was re-suspended in 175 μL PBS and pelleted again before further preparation for gel analysis and spin-filter assisted digest for quantitative MS/MS.
(§2) The fibril-protein pellets were transferred to spin-filters (0.22 μm), washed twice in PBS (100 μL) and once in 1 M NaCl (100 μL). The fibrils and fibril-bound proteins were dissolved by one-hour incubation in 100 μL 6 M guanidinium chloride followed by elution from the spin-filter. The eluted proteins were loaded onto a 3 kDa MWCO filter unit for filter-assisted unfolding, reduction, alkylation, and trypsin digestion. In brief, samples were washed twice in 8 M urea, once in 8 M urea with 50 mM DTT, once in 8 M urea with 50 mM iodoaceteamide, and twice in 8 M Urea. The filter units were dried by centrifugation (14,000 g in 30 minutes) after every addition. Trypsin digestion was carried out with 0.25 μg sequencing grade trypsin from Sigma Aldrich in 50 mM ammonium bicarbonate overnight at 37 °C. The tryptic peptides were collected by centrifugation, acidified with TFA (0.1%) and micro-purified using POROS R2 column material (Applied Biosystems) packed in P200 pipette tips (Sarstedt).
(§3) LC-MS/MS analyses were performed on an EASY-nLC II system (Thermo Fisher Scientific) connected to a TripleTOF 5600+ mass spectrometer (Sciex) equipped with a NanoSpray III source (Sciex) and operated under Analyst TF 1.6.0 control.
(§4) The micro-purified tryptic peptides were dissolved in 0.1% formic acid, injected and trapped on an in-house packed trap column (2 cm × 100 μm I.D) with RP ReproSil-Pur C18-AQ 3 μm resin (Dr. Maisch GmbH). Peptides were eluted from the trap column and separated on a 15 cm analytical column (75 μm i.d.) packed in-house in a pulled emitter with RP ReproSil-Pur C18-AQ 3 μm resin (Dr. Maisch GmbH). Elution from the analytical column was performed with a linear gradient from 5% to 35% phase B (90% acetonitrile with 0.1% formic acid) over 20 min for protein identification and 50 min for quantitative analysis, respectively.
(§5) All samples were analysed three times, yielding nine MS/MS experiments for each fibril for both plasma and CSF. For the area-based extracted ion chromatogram (XIC) quantification, the acquisition method was set up as an information-dependent acquisition (IDA) experiment collecting up to 25 MS/MS spectra in each 1.6 sec cycle using an exclusion window of 6 sec.
(§6) XIC quantification was based on the average ion intensity of the three most abundant peptides for each protein. Only proteins quantified in at least four out of nine MS/MS experiments per fibril were included in the quantification. The total ion scores were visualized after grouping the proteins according to function (Figure S11).
(§7) For each MS/MS experiment, the ion intensities of the individual proteins were normalized to the total ion intensity of that MS/MS experiment to achieve a relative protein composition. The contribution of each protein was averaged over all nine MS/MS experiments (Tables 1 and 2).
B1: the “Relative composition of CSF proteins bound: Ab1” value is reported as 1.4 ± 0.1 % of total protein.
Still for that read-out and setting: with B2 the figure was 3.9 ± 0.4 % of total protein; with B3, 1.1 ± 0.0 % of total protein; with B4, 2.8 ± 0.2 % of total protein.

For the next assay, the system named is T2, Ab2 fibrils.
T2 construct: Two structurally distinct fibrils of the Aβ(1–40) peptide associated with AD
Described as above. It is filed as binding, human. The note with it: 4:1 w/w CSF protein:fibril. As for the experimental part:
as §1, §2, §3, §4, §5, §6, §7
Consider B1, for which the “Relative composition of CSF proteins bound: Ab2” value was 1.3 ± 0.1 % of total protein.
For the molecule B2, the “Relative composition of CSF proteins bound: Ab2” value is 6.0 ± 0.6 % of total protein.
On the same count and under the same terms, as for B5, the figure is 1.8 ± 0.8 % of total protein; as for B3, 1.9 ± 0.6 % of total protein.
On to B4, for which the “Relative composition of CSF proteins bound: Ab2” value is 3.4 ± 0.7 % of total protein.

Another assay deals with T3, glucagon fibrils (Homo sapiens, UniProt P01275).
T3 construct: fibrils of the peptide hormone glucagon
T3 sequence (P01275 53-81 limits assumed): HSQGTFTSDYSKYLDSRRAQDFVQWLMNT
The description is as above. The format is binding. The note with it: 4:1 w/w CSF protein:fibril. On the procedure: as §1, §2, §3, §4, §5, §6, §7
B1: the “Relative composition of CSF proteins bound: Glucagon” value is given as 0.3 ± 0.0 % of total protein.
On to B2, for which the “Relative composition of CSF proteins bound: Glucagon” value is recorded as 0.9 ± 0.0 % of total protein.
For B5, the “Relative composition of CSF proteins bound: Glucagon” value was 0.4 ± 0.2 % of total protein.
On the same count and under the same terms, with B3 the figure was 0.7 ± 0.2 % of total protein; with B4, 0.6 ± 0.0 % of total protein.

Another assay has as its target T4, C-36 fibrils (Homo sapiens, UniProt P01009).
T4 construct: the 36 residue C-terminal fragment of α1-antitrypsin (C-36)
Described as above. The format is binding. The note with it: 4:1 w/w CSF protein:fibril. Also on record: key to Identification status of CSF protein bound: C-36: *: Identified, but not quantified; —: Not identified in any of the samples. On the procedure: as §1, §2, §3, §4, §5, §6, §7
Consider B1, for which the “Relative composition of CSF proteins bound: C-36” value is 1.2 ± 0.2 % of total protein.
As for B5, the “Relative composition of CSF proteins bound: C-36” value was 1.2 ± 0.1 % of total protein.
Consider B3, for which the “Relative composition of CSF proteins bound: C-36” value is given as 3.6 ± 0.7 % of total protein.
Regarding B4, the “Relative composition of CSF proteins bound: C-36” value is 2.0 ± 0.1 % of total protein.

Staying with this assay, now noted: symbol cells.
Turning to B2, the “Identification status of CSF protein bound: C-36” value is on record as “*”.

Another assay deals with αSN fibrils (Homo sapiens, UniProt P37840). The assay is described as above. The note with it: 4:1 w/w CSF protein:fibril. More on the design: key to Identification status of CSF protein bound: αSN: *: Identified, but not quantified; —: Not identified in any of the samples. The format is binding. On the procedure:
as §1, §2, §3, §4, §5, §6, §7
Consider B5, for which the “Relative composition of CSF proteins bound: αSN” value is given as 3.1 ± 0.4 % of total protein.

The assay is the same for the next values; noted with them: symbol cells.
On to B1, for which the “Identification status of CSF protein bound: αSN” value is “—”.
Turning to B2, the “Identification status of CSF protein bound: αSN” value is recorded as “*”.
Same read-out and setting: as for B3, the entry is “*”.
For B4, the “Identification status of CSF protein bound: αSN” value is reported as “*”.

The subject of a further assay is T5, FAS4-AD aggregates.
T5 construct: aggregates of a mutated version of the FAS1-4 domain of TGFBIp
Described as above. More on the design: key to Identification status of CSF protein bound: FAS4-AD: *: Identified, but not quantified; —: Not identified in any of the samples. The note with it: symbol cells. It is filed as binding, human. On the procedure: as §1, §2, §3, §4, §5, §6, §7
On to B1, for which the “Identification status of CSF protein bound: FAS4-AD” value was “—”.
Same read-out and setting: with B2 the entry was “*”.
Same read-out and setting: as for B5, the entry is “—”.
Still for that read-out and setting: with B3 the entry was “—”.
In the case of B4, the “Identification status of CSF protein bound: FAS4-AD” value is given as “—”.
